According to patent publication US20130005646A1 (Novo Nordisk, published 2013):
Starred links: 1 amine or outer side, 2 acyl side, 3 side chain; linkers in the order of their positions; H or OH if unused. Positions of bridges follow the written chain, without caps; N, C: chain ends. *: point of attachment. C20 diacid = O=C(O)CCCCCCCCCCCCCCCCCCC(=O)*; γGlu = O=C(O)[C@H](CCC(=O)[*:2])N[*:1]

T1: human calcitonin (a) receptor (human, UniProt P30988 25-474)
T1 sequence (looked up): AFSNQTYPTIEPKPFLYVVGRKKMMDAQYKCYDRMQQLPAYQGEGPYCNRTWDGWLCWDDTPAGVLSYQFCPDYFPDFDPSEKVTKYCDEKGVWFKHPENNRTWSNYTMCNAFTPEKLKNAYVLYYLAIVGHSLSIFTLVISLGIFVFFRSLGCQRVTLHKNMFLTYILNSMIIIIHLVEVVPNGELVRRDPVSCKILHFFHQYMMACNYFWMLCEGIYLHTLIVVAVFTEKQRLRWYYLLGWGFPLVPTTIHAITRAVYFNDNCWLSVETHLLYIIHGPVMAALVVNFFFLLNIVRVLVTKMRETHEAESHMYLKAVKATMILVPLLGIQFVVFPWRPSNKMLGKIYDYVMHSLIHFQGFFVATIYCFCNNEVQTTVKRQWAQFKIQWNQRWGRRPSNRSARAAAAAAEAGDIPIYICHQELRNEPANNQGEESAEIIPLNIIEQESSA

T2: human amylin 3(a) receptor (human calcitonin receptor + RAMP-3) (human, UniProt P30988 25-474; O60896 24-148)
T2 sequence (looked up) 1: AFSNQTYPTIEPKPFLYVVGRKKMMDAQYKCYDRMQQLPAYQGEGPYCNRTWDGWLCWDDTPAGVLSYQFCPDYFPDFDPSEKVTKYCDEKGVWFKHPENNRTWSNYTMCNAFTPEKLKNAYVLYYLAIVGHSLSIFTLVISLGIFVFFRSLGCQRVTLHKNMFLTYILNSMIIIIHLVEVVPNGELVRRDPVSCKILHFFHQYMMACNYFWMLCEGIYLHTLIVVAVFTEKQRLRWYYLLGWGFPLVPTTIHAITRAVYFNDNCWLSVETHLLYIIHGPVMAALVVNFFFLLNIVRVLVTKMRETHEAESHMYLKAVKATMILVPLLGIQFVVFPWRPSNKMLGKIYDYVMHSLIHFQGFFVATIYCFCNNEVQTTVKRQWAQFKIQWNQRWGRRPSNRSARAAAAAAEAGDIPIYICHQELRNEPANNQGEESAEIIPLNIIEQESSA
T2 sequence (looked up) 2: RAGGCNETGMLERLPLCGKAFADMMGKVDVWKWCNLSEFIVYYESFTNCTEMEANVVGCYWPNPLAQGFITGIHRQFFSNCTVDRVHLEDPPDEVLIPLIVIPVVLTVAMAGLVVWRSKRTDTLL


Columns and labels:
[1] = target: T1, human calcitonin (a) receptor; experiment: cell-based or functional assay
[2] = target: T2, human amylin 3(a) receptor (human …); experiment: cell-based or functional assay

| Binder | CTa receptor human EC50 [1] | Amylin receptor human EC50 [2] |
| --- | --- | --- |
| {C20 diacid-γGlu}-CGTATCATQRLAEFLHRSSQQFGPILPPTEVGSGTY-NH2 (disulfide 1-6; SMILES CC[C@H](C)[C@H](NC(=O)[C@@H]1CCCN1C(=O)CNC(=O)[C@H](Cc1ccccc1)NC(=O)[C@H](CCC(N)=O)NC(=O)[C@H](CCC(N)=O)NC(=O)[C@H](CO)NC(=O)[C@H](CO)NC(=O)[C@H](CCCNC(=N)N)NC(=O)[C@H](Cc1c[nH]cn1)NC(=O)[C@H](CC(C)C)NC(=O)[C@H](Cc1ccccc1)NC(=O)[C@H](CCC(=O)O)NC(=O)[C@H](C)NC(=O)[C@H](CC(C)C)NC(=O)[C@H](CCCNC(=N)N)NC(=O)[C@H](CCC(N)=O)NC(=O)[C@@H](NC(=O)[C@H](C)NC(=O)[C@@H]1CSSC[C@H](NC(=O)CC[C@H](NC(=O)CCCCCCCCCCCCCCCCCCC(=O)O)C(=O)O)C(=O)NCC(=O)N[C@@H]([C@@H](C)O)C(=O)N[C@@H](C)C(=O)N[C@@H]([C@@H](C)O)C(=O)N1)[C@@H](C)O)C(=O)N[C@@H](CC(C)C)C(=O)N1CCC[C@H]1C(=O)N1CCC[C@H]1C(=O)N[C@H](C(=O)N[C@@H](CCC(=O)O)C(=O)N[C@H](C(=O)NCC(=O)N[C@@H](CO)C(=O)NCC(=O)N[C@H](C(=O)N[C@@H](Cc1ccc(O)cc1)C(N)=O)[C@@H](C)O)C(C)C)[C@@H](C)O) | 284 pM | 253 pM |
| {C20 diacid-γGlu}-ECNTATCATQRLAEFLHRSSNNFGPILPPTNVGSNTY-NH2 (disulfide 2-7; SMILES CC[C@H](C)[C@H](NC(=O)[C@@H]1CCCN1C(=O)CNC(=O)[C@H](Cc1ccccc1)NC(=O)[C@H](CC(N)=O)NC(=O)[C@H](CC(N)=O)NC(=O)[C@H](CO)NC(=O)[C@H](CO)NC(=O)[C@H](CCCNC(=N)N)NC(=O)[C@H](Cc1c[nH]cn1)NC(=O)[C@H](CC(C)C)NC(=O)[C@H](Cc1ccccc1)NC(=O)[C@H](CCC(=O)O)NC(=O)[C@H](C)NC(=O)[C@H](CC(C)C)NC(=O)[C@H](CCCNC(=N)N)NC(=O)[C@H](CCC(N)=O)NC(=O)[C@@H](NC(=O)[C@H](C)NC(=O)[C@@H]1CSSC[C@H](NC(=O)[C@H](CCC(=O)O)NC(=O)CC[C@H](NC(=O)CCCCCCCCCCCCCCCCCCC(=O)O)C(=O)O)C(=O)N[C@@H](CC(N)=O)C(=O)N[C@@H]([C@@H](C)O)C(=O)N[C@@H](C)C(=O)N[C@@H]([C@@H](C)O)C(=O)N1)[C@@H](C)O)C(=O)N[C@@H](CC(C)C)C(=O)N1CCC[C@H]1C(=O)N1CCC[C@H]1C(=O)N[C@H](C(=O)N[C@@H](CC(N)=O)C(=O)N[C@H](C(=O)NCC(=O)N[C@@H](CO)C(=O)N[C@@H](CC(N)=O)C(=O)N[C@H](C(=O)N[C@@H](Cc1ccc(O)cc1)C(N)=O)[C@@H](C)O)C(C)C)[C@@H](C)O) [N-alpha-[(S)-4-Carboxy-4-(19-carboxynonadecanoylamino)butyryl]-[Glu1,Glu14,His17,Arg18]-pramlintide] | 1650 pM | 354 pM |
